For 6 sequences, protein production results are on record in a protein production outcome set (Wang et al. 2014).

The nature of the data set: label from the status in PepcDB records.
As for “MILPPAFHAALLSGGNGRESKLPWVALGLAWLLAVLALLGPSWQRVEQTSQKPADPLVVLLELTPQMLANDVPPDRLEQARHKLLDLLQLRSDAQTAIVVYAGSAHTLVPLSDDLATSRNLLDALKPSIMPQAGQRADLALLKALKLLDQGALGQGRVLLMASSLNEEERQGIRQALKGDAPQLLMLGFGSRDGAPVAQEDGSYLKDDQGAILVSRLDSPDLKHFIGDVGGRYRQARLDDSDLRGLGLLGGPQGLRSDGQTLRLDTWADQGYWLLLPLLLLAACAGRRGWLFCLPLLLFAVPQPSYAFDFNDLWLRPDQQGQRLLQQQRPAEAARHFQDPQWQGVALYEAGNYTAAAERFAEGNDARAHYNRGNALARSGELEAAIDAYEQALERQPDLQPALQNKALVESLLQQQQAQTQTPPPAKKPDTPEGDDTRPGPSGAATQPPPGSNGPQDPAQAPANEGDTPPPDPQAAGHSEVPGSELDDQHTTTPLRPVEDSLDAEHQQALEQWLRKIPDDPGELLRRKFWYEQQQHQDQGKTR”, the protein production result is given as “failed”.

“MILQNKTFDLNPNDIAGLELVCQTLRNRILEVVSANGGHLSSSLGAVELIVGMHALFDCQKNPFIFDTSHQAYAHKLLTGRFESFSTLRQFKGLSGFTKPSESAYDYFIAGHSSTSVSIGVGVAKAFCLKQALGMPIALLGDGSISAGIFYEALNELGDRKYPMIMILNDNEMSISTPIGALSKALSQLMKGPFYQSFRSKVKKILSTLPESVNYLASRFEESFKLITPGVFFEELGINYIGPINGHDLSAIIETLKLAKELKEPVLIHAQTLKGKGYKIAEGRYEKWHGVGPFDLDTGLSKKSKSAILSPTEAYSNTLLELAKKDEKIVGVTAAMPSGTGLDKLIDAYPLRFFDVAIAEQHALTSSSAMAKEGFKPFVSIYSTFLQRAYDSIVHDACISSLPIKLAIDRAGIVGEDGETHQGLLDVSYLRSIPNMVIFAPRDNETLKNAVRFANEHDSSPCAFRYPRGSFALKEGVFEPSGFVLGQSELLKKEGEILLIGYGNGVGRAHLVQLALKEKNIECALLDLRFLKPLDPNLSAIVAPYQKLYVFSDNYKLGGVASAILEFLSEQNILKPVKSFEIIDEFIMHGNTALVEKSLGLDTESLTDAILKDLGQER”: the protein production entry is “failed”.

Turning to “MILSRYIARRFLRMVFIVFLAFFGLMMLIDVLDQMRRFSDEGITLVQAGLLSLLRVPATLYTILPLIVILAAVALFLGLARSSELVVVRAAGRSGLRFLVAPMVVALALGTVAVTVLNPIVAGTSRQYDAAAGRLARGEASILSISKEGLWLRQGGSGEQTVIHALRSNTDGTRLYAVTFLTFDAEGRPTGRIAAEQAALERGYWQLSGAKSWDLTEANPEARAGLPGNLRVTSELTREGIQDSFGDPSAIPIWELPAYVAGLERAGFSARKHRVWMQMEFALPATLAAMVLVAAGFTMRHSRFGGTGRMVLLALLGGFSLFFLRNFAQVLGENGQIPILLAAWSPPLIGVMGSLGLLLHLEDG”, the protein production result is “failed”.

In the case of “MILVTGFEPFGSLEHNPSQALLDLLPSEVDGKPLRKAVLPVDAEALGEALEDLHREGPKAVLHLGLAEDRPVLTLERLAVNLLDFPRPDNRGRVLEDLPIVPGGPLALPARFPVKPVLARWREAGIPGRPSLSAGSYLCNQAFYLSLYRLPEEVPVGFLHLPPDETLALKRPRPYVPLEVQARAVRLALEHL”, the protein production result is given as “not failed”.

With “MIMFNYQQTSQSCVKCGKCIPSCTIYNIHPDEVTSPRGFIDLLGAYQRGELELDKNAKDIFEKCFLCTNCTYVCPNLLPTDQVIENVRAEIAQKFGIAWFKRAYFFLLRNRWLEHHHHHH”, the protein production entry was “failed”.

“MIMMESGKLDLDRTKEGVKKYWDYGSKFYDTAPGLGGNEESQIWKKLLSSSIGPDLKNILDVGSGTGIIAMYLAELGYGVTAVDFSEGMMDIARKKALEKGAKIRFMEGDIENLSFEDETFDCVTARYVLWTLPHPEKALKEWVRVVKPGGRIVIIDGKWVTRGLLPRISAMNYHIYRFIKYGKNPFTYDYRKEVSVGLPNPHGVEKKQIMEYVSKAGLTDIVVTDLKIIRDIQRKKLPWYLKYANDHPIFMVRGTVAKKG”: the protein production result was “failed”.
